B1: SjGST20 (Saccharina japonica) (protein)
chain: MVPVFNYFGVPARGEATRVALAVAGVEFVDKIIPYAELHASGFRAVPVYQLDGTNYTQSTALLRYAGKLGGTYPEDPLEALKVDEIVMMVEDVFINIFADMKEKDEAKKLATHQALIAGKVKYLIEDIASKLEANTASPFCVGPSLTIADIMVHAMIATFQAGFLVGVPTTTAEDICPSLKGLDDAVMEHPKVKAYYASKA
B2: SjGST22 (Saccharina japonica) (protein)
chain: MAPKLVLTYFDIAGAAEAVRWALEQSGLEWEDKRLTRDEFGALKPSLPNGQVPILEVDGFVLAQSQAILRYVGKLGGLYPSDDLEAAKCDSVLDCATDFGINIRPSFMEKDQAKKMEMREDLAANFIPKWLASMEKQLASTGGIYFGEKMTVADIMIALRVKGLKGGVLDGVPTTIADSYPNLIALHDSIVGEPKIAAFIAKHAK

Substrate: O=[N+]([O-])c1ccc(Cl)c([N+](=O)[O-])c1
Assay: purified protein
Format: biochemical, Saccharina japonica
Conditions: GSH co-substrate (30 μL of 60 mM in 900 μL)
[1] = 0.1 M potassium phosphate pH 7.0, 20 °C
[2] = 0.1 M potassium phosphate pH 8.0, 20 °C

Protein | Km [1] | kcat [1] | kcat/Km [1] | Km [2] | kcat [2] | kcat/Km [2]
B1 | 2706 µM | 9.83 s⁻¹ | 3630 M⁻¹ s⁻¹ |  |  | 
B2 |  |  |  | 674 µM | 0.478 s⁻¹ | 709 M⁻¹ s⁻¹

From publication PMC10506224, “Isolation and characterization of glutathione S-transferase genes and their transcripts in Saccharina japonica (Laminariales, Phaeophyceae) during development and under abiotic stress” (BMC Plant Biology, 2023)
